US20240059799A1 (Pfizer, published 2024)
Changes are numbered by the printed parent chain.

T1: recombinant human TL1A (human, UniProt O95150 71-251)
T1 construct: homotrimer; biotinylated for SPR capture; the ELISA paragraphs say only 'recombinant TL1A'; also called TNFSF15
T1 chain: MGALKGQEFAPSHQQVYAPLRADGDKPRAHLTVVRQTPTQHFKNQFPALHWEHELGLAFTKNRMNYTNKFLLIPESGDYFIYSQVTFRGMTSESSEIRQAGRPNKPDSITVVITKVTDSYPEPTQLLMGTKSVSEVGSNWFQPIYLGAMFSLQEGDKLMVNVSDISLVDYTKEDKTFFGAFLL

B1: TL1A-0012 (antibody, IgG1, V domains shown)
VH: QVQLVQSGAEVKKPGASVKVSCKASGYDFTYYGISWVRQAPGQGLEWMGWISTYNGNTHYADSLQGRVTMTTDTSTRTAYMELRSLRSDDTAVYYCARENYYGSGAYRGGMDVWGQGTTVTVSS
VL: EIVLTQSPATLSLSPGERATLSCRASQSVSSYLAWYQQKPGQAPRLLIYDASNRATGIPARFSGSGSGTDFTLTISSLEPEDFAVYYCQQRSNWPWTFGQGTKVEIKR
notes: IgG1/kappa variant of TL1A-0002
B2: TL1A-0031 (antibody, IgG1, V domains shown)
VH: B1 VH with D62R, S63M, A106D
VL: B1 VL
notes: as for B1
B3: TL1A-0022 (antibody, IgG1, V domains shown)
VH: B1 VH with T58E, D62R, S63M
VL: B1 VL
notes: as for B1
B4: TL1A-0080 (antibody, IgG1, V domains shown)
VH: B1 VH with N55G, D62R, S63M
VL: B1 VL
notes: as for B1
B5: TL1A-0082 (antibody, IgG1, V domains shown)
VH: B1 VH with T53A, D62Q, S63K
VL: B1 VL
notes: as for B1
B6: TL1A-0068 (antibody, IgG1, V domains shown)
VH: B1 VH with Y31K, D62R, S63M
VL: B1 VL
notes: as for B1
B7: TL1A-0086 (antibody, IgG1, V domains shown)
VH: B1 VH with I51A, D62P
VL: B1 VL
notes: as for B1
B8: TL1A-0071 (antibody, IgG1, V domains shown)
VH: B1 VH with I34V, D62R, S63M
VL: B1 VL
notes: as for B1
B9: TL1A-0084 (antibody, IgG1, V domains shown)
VH: B1 VH with I51A, D62R, S63M
VL: B1 VL
notes: as for B1
B10: TL1A-0062 (antibody, IgG1, V domains shown)
VH: B1 VH with F29Y, D62R, S63M
VL: B1 VL
notes: as for B1
B11: TL1A-0069 (antibody, IgG1, V domains shown)
VH: B1 VH with Y32H, D62R, S63M
VL: B1 VL
notes: as for B1
B12: TL1A-0063 (antibody, IgG1, V domains shown)
VH: B1 VH with T30S, D62R, S63M
VL: B1 VL
notes: as for B1
B13: TL1A-0021 (antibody, IgG1, V domains shown)
VH: B1 VH with T58D, D62R, S63M
VL: B1 VL
notes: as for B1
B14: TL1A-0026 (antibody, IgG1, V domains shown)
VH: B1 VH with T58E
VL: B1 VL
notes: as for B1
B15: TL1A-0081 (antibody, IgG1, V domains shown)
VH: B1 VH with T53A, D62R, S63M
VL: B1 VL
notes: as for B1
B16: TL1A-0030 (antibody, IgG1, V domains shown)
VH: B1 VH with D62R, S63M, A106E
VL: B1 VL
notes: as for B1
B17: TL1A-0040 (antibody, IgG1, V domains shown)
VH: B1 VH with D62R, S63M, A106D, Y107H
VL: B1 VL
notes: as for B1
B18: TL1A-0067 (antibody, IgG1, V domains shown)
VH: B1 VH with Y31F, D62R, S63M
VL: B1 VL
notes: as for B1
B19: TL1A-0033 (antibody, IgG1, V domains shown)
VH: B1 VH with D62R, S63M, Y107F
VL: B1 VL
notes: as for B1
B20: TL1A-0073 (antibody, IgG1, V domains shown)
VH: B1 VH with G56T, D62Q, S63K
VL: B1 VL
notes: as for B1
B21: TL1A-0061 (antibody, IgG1, V domains shown)
VH: B1 VH with Y27F, D62R, S63M
VL: B1 VL
notes: as for B1
B22: TL1A-0074 (antibody, IgG1, V domains shown)
VH: B1 VH with G56T, D62P
VL: B1 VL
notes: as for B1
B23: TL1A-0088 (antibody, IgG1, V domains shown)
VH: B1 VH with N55G, D62P
VL: B1 VL
notes: as for B1
B24: TL1A-0013 (antibody, IgG1, V domains shown)
VH: B1 VH with D62P
VL: B1 VL
notes: as for B1
B25: TL1A-0023 (antibody, IgG1, V domains shown)
VH: B1 VH with T58D, D62P
VL: B1 VL
notes: as for B1
B26: TL1A-0014 (antibody, IgG1, V domains shown)
VH: B1 VH with D62Q, S63K
VL: B1 VL
notes: as for B1
B27: TL1A-0029 (antibody, IgG1, V domains shown)
VH: B1 VH with D62R, S63M, Y101L
VL: B1 VL
notes: as for B1
B28: TL1A-0076 (antibody, IgG1, V domains shown)
VH: B1 VH with G56D, D62P
VL: B1 VL
notes: as for B1
B29: TL1A-0079 (antibody, IgG1, V domains shown)
VH: B1 VH with N55Q, D62R, S63M
VL: B1 VL
notes: as for B1
B30: TL1A-0085 (antibody, IgG1, V domains shown)
VH: B1 VH with I51A, D62Q, S63K
VL: B1 VL
notes: as for B1
B31: TL1A-0027 (antibody, IgG1, V domains shown)
VH: B1 VH with T53A, H59N, D62Q, S63K
VL: B1 VL
notes: as for B1
B32: TL1A-0038 (antibody, IgG1, V domains shown)
VH: B1 VH with D62R, S63M, A106D, Y107F
VL: B1 VL
notes: as for B1
B33: TL1A-0019 (antibody, IgG1, V domains shown)
VH: B1 VH with Y60H, D62R, S63M
VL: B1 VL
notes: as for B1
B34: TL1A-0083 (antibody, IgG1, V domains shown)
VH: B1 VH with N55G, D62Q, S63K
VL: B1 VL
notes: as for B1
B35: TL1A-0024 (antibody, IgG1, V domains shown)
VH: B1 VH with T58E, D62P
VL: B1 VL
notes: as for B1
B36: TL1A-0087 (antibody, IgG1, V domains shown)
VH: B1 VH with T53A, D62P
VL: B1 VL
notes: as for B1
B37: TL1A-0028 (antibody, IgG1, V domains shown)
VH: B1 VH with D62R, S63M, Y102W
VL: B1 VL
notes: as for B1

Molecular target: T1, recombinant human TL1A
Experiment: competition ELISA vs bio-TL1A-0002
Experimental: For this competition ELISA assay procedure, 96-well high binding plates (Corning, product number 3590) were coated with 1 μg/mL recombinant TL1A in 100 μL/well in Phospate Buffered Saline (PBS) overnight at 4° C. Plates were then blocked in PBS+0.02% casein solution and washed with PBS+0.05% Tween-20 following standard ELISA protocol. […] Plates were washed with PBS+0.05% Tween-20 following standard ELISA protocol, and Streptavidin-HRP (Southern Biotech, product number 7100-05) diluted to 1:10,000 in assay buffer was added to plates and incubated for 25-30 minutes at room temperature. Next, the plates were washed with PBS+0.05% Tween-20 following standard ELISA protocol, and then TMB substrate (BioFX Laboratories, catalog number TMBW-0100-01) was added to plates. Reactions were stopped after approximately 5 minutes by adding 0.18 M ortho-phosphoric acid to each well and absorbance was read at 450 nm.

Bioactivity relative to TL1A-0002 [fold] | IC50 [nM] | Binder
1.1 | 5 | B1
1.6 | 7.4 | B2
1.5 | 6.9 | B3
1.1 | 5 | B4
1.2 | 5.2 | B5
1 | 4.6 | B6
1.1 | 5 | B7
0.9 | 3.9 | B8
1 | 4.5 | B9
0.9 | 4 | B10
0.9 | 4.1 | B11
0.9 | 4.1 | B12
1.3 | 6 | B13
2 | 8.9 | B14
0.9 | 4.1 | B15
1.4 | 6.1 | B16
1 | 4.7 | B17
1.1 | 5.1 | B18
0.8 | 3.6 | B19

Bioactivity relative to TL1A-0002 [fold] | IC50 [nM] | Binder
1.1 | 5 | B20
1 | 4.6 | B21
1 | 4.5 | B22
1.4 | 6.5 | B23
1.2 | 5.5 | B24
1.3 | 5.6 | B25
1.1 | 5.1 | B26
1.7 | 7.8 | B27
1.2 | 5.4 | B28
1.3 | 5.8 | B29
1 | 4.7 | B30
1.9 | 8.3 | B31
1.6 | 7.2 | B32
1.1 | 5 | B33
1.5 | 6.8 | B34
1.2 | 5.4 | B35
1.1 | 4.8 | B36
1.2 | 5.4 | B37
